Test: label from the status in PepcDB records

## MASYTLRQLKYFVTTVECGSVAEASRKLYIAQPSISTAVKGLEESFGVQLFIRHHAQGVSLTPAGARFYRKAQELLRMAHEFEQNALADNDVIAGQIDIGCFETVAPLYLPGLIAGFRQAYPGVEIRIRDGEQQELVQGLTSGRFDLAFLYEHDLDSTIETEPLMPPQRPHALLPEGHRFAGQAQVSLRDLCLEPMILLDVQPSRTYFVSLFEELGLTPNIAFSSPSIEMVRGMVGQGFGFSLLVTRPHSECTYDGKKVVMVDLAEPVSTSGLAAAWLKRAQLTKPARLFVDYCREQLGKLAERRH
  protein production: not failed

## MKLRHCLIIVFACCAALWSESPSIADDAVRTSLAGLEWHVVTDVWPPFRIEQETGLVGIDVDILKALSTSLGLRLRISRAPWGRCLKMLETGAADAMIGLAKSAEREVYIRYVPTSYYTCSPRFYILAGARRAVLTYDDLEGMRVGYVAQSRYFEPFDSDTKLQKYAVPTERQLLELLLAGRVDVMVGTDCQVDYELAEAGLLERVVVAPYRPDAHTRLYLGFSRKSRFVPRIALFDDAMRDLLEKGALKQIRASYLPDSSVSGR
  protein production: failed

## MEVSENATTRGSLALVSIILPVHNAEQWLDECLMSVLQQDFEGAMELSVFNDASKDKSRAIIEKWKVKLEDSGISVVIGGHDSPSPRGVGYSKNQAVAQSTGSYLCFLDSDDVMMPQRVRMQYEAAGQHPTSIIGCQVRRDPPDSTERYTRWINHLTSDQLLTQVFTSHGPTVIMPTWFCSRAWFSHVGPFDEGGQGVPEDLLFFYEHLRKGGGVFRVDHSLLLYRYHLYAATHSVLEMTIWTHRVHFLEEQVLPHWKSFTIWNAGKQGRKLYRSLTAASRHKVVAFSDVDENKIRKGFYCYEDSQERPKPKVPILHFQAAQSPFVICVKLDLTGGEFEDNLKSLDLQEGRDFVHFS
  protein production: failed

## MLNSAGKLIYGLCFLLVVCVNNAMAEVIHSERSLYRNILVEDNGDLRCLKFNVKSTKTRQSCLLKSQPQQLVFNYTKQLLTGLLVNPEPKHILIIGLGGGTMSNTLHQLLPDSYIDNVEIDESVIKVARQYFGFLENDQIKTYSQDGRVFVKRALLKKQEYDWIILDAFNGDYIPEHLMTKEYLEETKRLLSPQGILTANTFSSSQLYRYESATYKAVFGDYYQVSNPDNSNRIILARNSGLDENLYKELAAAEQSESITQLAIKLLAIGVEVKQLYKNIKSTATHQDWPDDSPVLTDQFSPANLLNIDVD
  protein production: failed

## MSDLQSLQPKLLWQWFDQICAIPHPSYKEEQLAQFIINWAKTKGFFAERDEVGNVLIRKPATVGMENRKPVVLQAHLDMVPQANEGTNHNFDQDPILPYIDGDWVKAKGTTLGADNGIGMASALAVLESNDIAHPELEVLLTMTEERGMEGAIGLRPNWLRSEILINTDTEENGEIYIGCAGGENADLELPIEYQVNNFEHCYQVVLKGLRGGHSGVDIHTGRANAIKVLLRFLAELQQNQPHFDFTLANIRGGSIRNAIPRESVATLVFNGDITVLQSAVQKFADVIKAELALTEPNLIFTLEKVEKPQQVFSSQCTKNIIHCLNVLPNGVVRNSDVIENVVETSLSIGVLKTEDNFVRSTMLVRSLIESGKSYVASLLKSLASLAQGNINLSGDYPGWEPQSHSDILDLTKTIYAQVLGTDPEIKVIHAGLECGLLKKIYPTIDMVSIGPTIRNAHSPDEKVHIPAVETYWKVLTGILAHIPSR
  protein production: not failed

## MITVLILRCIMVKSTTRKSAKSDRRRYNRIARFYDLFETPMELMNFRKWRKMLFDLIKAEKGLVLEIGAGTGKNIPHYPSNVVALDISEKMLERAVRRAKESGKKVDFLLADAENLPFRSNSFDVVFTTFVFCSVDDPVRGLREAFRVLKKGGRAYFLEHMLPKSRFLHPLFNLLNPIFRAFGPEINRRTDENIQRAGFQIVKEYMLFGSVFRLIVAEKPLDSVDEASGYSLKRSESSDSSNFRRFIGQSLLPLRLTQLLR
  protein production: failed

## MNDTYQPINCDDYDNLELACQHHLMLTLELKDGEKLQAKASDLVSRKNVEYLVVEAAGETRELRLDKITSFSHPEIGTVVVSES
  protein production: not failed

## ELSERQRAEQKLLEVNQLQKGIFDVANYMIISTDRRGIISTFNRTAEEILGYTAAELIGQQTPLIFHDQEEMASEAVQLSQQLQQTIRPNSIDMFAIPAIQWGVYEREWTYITKTGDRLPVYVSITALRDDQGKVDGLVGV
  protein production: failed

## MAMPAHMTLTGEKQGKIDGSCELQGRENTIQLYEMKHDIHMPRNPHDGLPTGKRVHGPLSIVKMFDKSSPKLYQALCTGEHMKNVQIKWYRINKQGLEEHYFTTTLEDAIVVEMKPYMPMTLLPANEPYGHMEEVAFSYKKIKWTWEPNGIEAEDSWSVPK
  protein production: failed

— a protein production outcome set (Wang et al. 2014)
